What was measured:
SRSF1 RRM1+2 (ASF/SF2) [1] = target: T1, SRSF1 RRM1+2 (ASF/SF2) (UniProt Q07955 1-196); experiment: competition
SRSF1 RRM1+2 (ASF/SF2) [2] = target: T1, SRSF1 RRM1+2 (ASF/SF2); experiment: fluorescence anisotropy
SRSF1 RRM1+2 (ASF/SF2) [3] = target: T1, SRSF1 RRM1+2 (ASF/SF2); experiment: competition; remark: listed apart in the source

T1 sequence (Q07955 1-196): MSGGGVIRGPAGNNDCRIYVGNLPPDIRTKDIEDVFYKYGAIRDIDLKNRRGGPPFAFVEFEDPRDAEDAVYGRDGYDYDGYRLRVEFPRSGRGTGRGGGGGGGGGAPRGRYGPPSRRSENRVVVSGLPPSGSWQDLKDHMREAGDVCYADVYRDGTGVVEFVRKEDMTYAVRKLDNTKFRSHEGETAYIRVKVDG

Q: For GGGGCCGGGGCCGGGGCCGGGGCC (ssRNA) [(G4C2)4 unlabeled, folded without K+], which Kd (SRSF1 RRM1+2 (ASF/SF2) [1]) is on record?
A: The Kd was less than 0.021 µM.

Q: How did the Kd (SRSF1 RRM1+2 (ASF/SF2) [2]) turn out when AAAUCAGAGGAAAA (ssRNA) [SRSF1 canonical motif RNA] was run?
A: The Kd was 0.021 ± 0.003 µM.

Q: AAAAUUAAAAUUAAAAUUAAAAUU (ssRNA) [(A4U2)4 unlabeled] was tested. Which Kd (SRSF1 RRM1+2 (ASF/SF2) [3]) did it give?
A: The Kd was roughly 0.2 µM.
